Among the data in PMC3137634 (2011) are Kd and Ka values, retold here.

Assay [1] addresses T1, Human TNFR1/Fc (human, UniProt P19438 30-211).
T1 chain: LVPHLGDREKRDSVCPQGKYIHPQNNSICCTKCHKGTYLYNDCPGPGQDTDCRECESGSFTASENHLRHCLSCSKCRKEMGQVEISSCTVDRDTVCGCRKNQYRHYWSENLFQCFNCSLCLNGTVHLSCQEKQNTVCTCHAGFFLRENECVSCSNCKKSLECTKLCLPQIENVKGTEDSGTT
As to the kind of experiment: SPR. On the technique in general: SPR reads the build-up and loss of mass on a sensor chip optically.

The target of assay [2] is T1, Human TNFR1/Fc. As to the kind of experiment: SPR.

B1: recombinant HP986 (natural protein)
chain: METFFSLHVPNRRIKQNGIIDEKSLEKIQERKNLSSLLYEHRARIIPLYKRINENHAKNKTINICENNLKLFYKDHQVCVNIDKKEIKLRYSEDEDDFRKYIIGGWFEEYIYCELLELLDKQVICDLRLNMILGVGNTNATQGDKHPIYTELDIAFSDGKNLYVAECKSGELKNKGVLAALSADAQIFGGANAKCILISIDGNLGQVLQEKVKILNIEFIFKYFKKNIENYINNSRR
A word on the Kd: it is the free concentration of one partner at which half of the binding sites on the other are occupied at equilibrium, for simple one-to-one binding. A lower Kd goes with higher affinity. B1: the affinity with Human TNFR1/Fc [1], expressed as Kd, was 72.1 nM. Besides, the Ka in the assay with Human TNFR1/Fc [2] stood at 1.39e+07 M⁻¹.
